Laboratory results taken from US20230212549A1 (3B PHARMACEUTICALS, published 2023).
Numbered stars: 1 amine (or outer) side, 2 acyl side, 3 side chain; on linkers, the order of the positions; unused ones are H or OH. Bridge positions count the residues as written; N and C are the ends. Square brackets hold non-standard residues; d marks the D form. Primed or numbered codes have the meaning given here. * marks the point of attachment. tMeBn(DOTA-PP) = 1,3,5-trimethylbenzylidene, two thioethers to Cys, third CH2 bound to one N of piperazine whose other N bears DOTA, O=C(O)CN1CCN(CC(=O)O)CCN(CC(=O)N2CCN(Cc3cc(C[*:1])cc(C[*:2])c3)CC2)CCN(CC(=O)O)CC1; Ttds″ = 1,13-diamino-4,7,10-trioxatridecan-succinamic acid spacer, O=C(CCC(=O)[*:2])NCCCOCCOCCOCCCN[*:1]; TBMB(SCH2CH2NH-DOTA) = O=C(O)CN1CCN(CC(=O)O)CCN(CC(=O)NCCSCc2cc(C[*:1])cc(C[*:2])c2)CCN(CC(=O)O)CC1; 3Lut″ = 3,5-lutidylidene (from 3,5-lutidine); mXylylene = c1cc(C[*:1])cc(C[*:2])c1; Pentanesulfonyl = CCCCCS(=O)(=O)*; 2Lut = 2,6-lutidylidene; Hexanoyl = CCCCCC(=O)*; NH(CH2)5NH2 = NCCCCCN*

Columns and labels:
[1] = biological target: T1, fibroblast activation protein (FAP) on FAP-expressing human WI-38 fibroblasts (human, UniProt Q12884 1-760); assay: competitive FACS, WI-38 cells, vs Cy5 tracer m3; A = pIC50 >8.0
T1 construct: also called human FAP

[2] = biological target: Recombinant human FAP (R&D systems, #3715-SE) (human, UniProt Q12884 26-760); assay: cell-based or functional assay

B1: Hex-[Cys(tMeBn(DOTA-AET))-Pro-Pro-Thr-Gln-Phe-Cys]-Gly-OH (peptide)
peptide: Hexanoyl-CPPTQFCG-OH
modifications: linker 1-7 via TBMB(SCH2CH2NH-DOTA)
SMILES: CCCCCC(=O)N[C@H]1CSCc2cc(CSCCNC(=O)CN3CCN(CC(=O)O)CCN(CC(=O)O)CCN(CC(=O)O)CC3)cc(c2)CSC[C@@H](C(=O)NCC(=O)O)NC(=O)[C@H](Cc2ccccc2)NC(=O)[C@H](CCC(N)=O)NC(=O)[C@H]([C@@H](C)O)NC(=O)[C@@H]2CCCN2C(=O)[C@@H]2CCCN2C1=O
notes: also called 3BP-3656
[1]
  pIC50 Category (FACS): > 8 pIC50
[2]
  pIC50 Category (Activity): > 8 pIC50

B2: Hex-[Cys(tMeBn(DOTA-AET))-Pro-Pro-Thr-Gln-Phe-Cys]-Ser-OH (peptide)
peptide: Hexanoyl-CPPTQFCS-OH
modifications: linker 1-7 via TBMB(SCH2CH2NH-DOTA)
SMILES: CCCCCC(=O)N[C@H]1CSCc2cc(CSCCNC(=O)CN3CCN(CC(=O)O)CCN(CC(=O)O)CCN(CC(=O)O)CC3)cc(c2)CSC[C@@H](C(=O)N[C@@H](CO)C(=O)O)NC(=O)[C@H](Cc2ccccc2)NC(=O)[C@H](CCC(N)=O)NC(=O)[C@H]([C@@H](C)O)NC(=O)[C@@H]2CCCN2C(=O)[C@@H]2CCCN2C1=O
notes: also called 3BP-3658
[1]
  pIC50 Category (FACS): > 8 pIC50
[2]
  pIC50 Category (Activity): > 8 pIC50

## Hexanoyl-CPPTQFCD[Ttds″]-{NH(CH2)5NH2-DOTA′} (linker 1-7 via mXylylene, also called 3BP-3404) [Hex-[Cys(3MeBn)-Pro-Pro-Thr-Gln-Phe-Cys]-Asp-Ttds-Ape-NH-DOTA′]
[1]
  pIC50 Category (FACS): > 8 pIC50
[2]
  pIC50 Category (Activity): > 8 pIC50

B3: Hex-[Cys(tMeBn(DOTA-PP))-Pro-Pro-Thr-Gln-Phe-Cys]-Asp-NH2 (peptide)
peptide: Hexanoyl-CPPTQFCD-NH2
modifications: linker 1-7 via tMeBn(DOTA-PP)
SMILES: CCCCCC(=O)N[C@H]1CSCc2cc(cc(CN3CCN(C(=O)CN4CCN(CC(=O)O)CCN(CC(=O)O)CCN(CC(=O)O)CC4)CC3)c2)CSC[C@@H](C(=O)N[C@@H](CC(=O)O)C(N)=O)NC(=O)[C@H](Cc2ccccc2)NC(=O)[C@H](CCC(N)=O)NC(=O)[C@H]([C@@H](C)O)NC(=O)[C@@H]2CCCN2C(=O)[C@@H]2CCCN2C1=O
[1]
  pIC50 Category (FACS): > 8 pIC50
[2]
  pIC50 Category (Activity): > 8 pIC50

B4: Hex-[Cys(tMeBn(DOTA-AET))-Pro-Pro-Thr-Gln-Phe-Cys]-Asp-NH2 (peptide)
peptide: Hexanoyl-CPPTQFCD-NH2
modifications: linker 1-7 via TBMB(SCH2CH2NH-DOTA)
SMILES: CCCCCC(=O)N[C@H]1CSCc2cc(CSCCNC(=O)CN3CCN(CC(=O)O)CCN(CC(=O)O)CCN(CC(=O)O)CC3)cc(c2)CSC[C@@H](C(=O)N[C@@H](CC(=O)O)C(N)=O)NC(=O)[C@H](Cc2ccccc2)NC(=O)[C@H](CCC(N)=O)NC(=O)[C@H]([C@@H](C)O)NC(=O)[C@@H]2CCCN2C(=O)[C@@H]2CCCN2C1=O
notes: also called 3BP-3426
[1]
  pIC50 Category (FACS): > 8 pIC50
[2]
  pIC50 Category (Activity): > 8 pIC50

B5: Hex-[Cys(3MeBn)-Pro-Pro-Thr-Gln-Phe-Cys]-Asp-NH2 (peptide)
peptide: Hexanoyl-CPPTQFCD-NH2
modifications: linker 1-7 via mXylylene
SMILES: CCCCCC(=O)N[C@H]1CSCc2cccc(c2)CSC[C@@H](C(=O)N[C@@H](CC(=O)O)C(N)=O)NC(=O)[C@H](Cc2ccccc2)NC(=O)[C@H](CCC(N)=O)NC(=O)[C@H]([C@@H](C)O)NC(=O)[C@@H]2CCCN2C(=O)[C@@H]2CCCN2C1=O
[1]
  pIC50 Category (FACS): > 8 pIC50
[2]
  pIC50 Category (Activity): > 8 pIC50

B6: Pentyl-SO2-[Cys(3MeBn)-Pro-Pro-Thr-Gln-Phe-Cys]-Asp-NH2 (peptide)
peptide: Pentanesulfonyl-CPPTQFCD-NH2
modifications: linker 1-7 via mXylylene
SMILES: CCCCCS(=O)(=O)N[C@H]1CSCc2cccc(c2)CSC[C@@H](C(=O)N[C@@H](CC(=O)O)C(N)=O)NC(=O)[C@H](Cc2ccccc2)NC(=O)[C@H](CCC(N)=O)NC(=O)[C@H]([C@@H](C)O)NC(=O)[C@@H]2CCCN2C(=O)[C@@H]2CCCN2C1=O
notes: also called 3BP-3514
[1]
  pIC50 Category (FACS): > 8 pIC50
[2]
  pIC50 Category (Activity): > 8 pIC50

## Hexanoyl-CPPTQFCD-NH2 (linker 1-7 via 2Lut, also called 3BP-3518) [Hex-[Cys(2Lut)-Pro-Pro-Thr-Gln-Phe-Cys]-Asp-NH2]
[1]
  pIC50 Category (FACS): > 8 pIC50
[2]
  pIC50 Category (Activity): > 8 pIC50

## Hexanoyl-CPPTQFCD-NH2 (linker 1-7 via 3Lut″, also called 3BP-3519) [Hex-[Cys(3Lut)-Pro-Pro-Thr-Gln-Phe-Cys]-Asp-NH2]
[1]
  pIC50 Category (FACS): > 8 pIC50
[2]
  pIC50 Category (Activity): > 8 pIC50
